Key:
[1] = target: T1, mouse LAG-3 coupled to human Fc (mouse, UniProt Q61790 24-442, limits assumed); assay: ELISA, plate coated with mouse LAG-3-Fc, crude periplasmic Fab extract, anti-human Fab-HRP, absorbance 450-670 nm
T1 construct: also called murine LAG-3; Fc-coupled murine LAG-3; not shown: human Fc
T1 sequence (looked up): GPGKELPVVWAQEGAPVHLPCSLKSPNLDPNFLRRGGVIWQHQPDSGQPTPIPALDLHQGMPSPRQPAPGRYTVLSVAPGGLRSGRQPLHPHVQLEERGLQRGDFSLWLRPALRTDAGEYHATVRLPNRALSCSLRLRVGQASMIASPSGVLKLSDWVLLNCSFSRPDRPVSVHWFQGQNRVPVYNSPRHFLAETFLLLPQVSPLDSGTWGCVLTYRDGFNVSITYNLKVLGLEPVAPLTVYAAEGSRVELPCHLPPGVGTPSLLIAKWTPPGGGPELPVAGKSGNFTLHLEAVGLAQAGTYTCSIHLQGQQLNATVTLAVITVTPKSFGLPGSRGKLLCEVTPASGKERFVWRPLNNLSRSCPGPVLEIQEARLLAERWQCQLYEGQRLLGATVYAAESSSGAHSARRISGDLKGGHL
Procedure: After extensive washes in PBS Tween-20, crude periplasmic extracts from the induction were transferred into the ELISA wells in the presence of 7% milk in PBS. After 90 minutes at room temperature under agitation and extensive washes, a goat anti-human Fab antibody coupled to HRP was added. One hour la ter, plates were washed and TMB substrate was added. The reaction was stopped with 1M HCl and optical density was measured at 450 nm with a reference at 670 nm. Antibodies giving an absorbance >0.1 were selected as positive. A first clonality screening was performed by DNA fingerprinting; clonality was then confirmed by sequencing.

[2] = target: T2, human LAG-3 coupled to phycoerythrin (human, UniProt P18627 23-450, limits assumed, coupled to phycoerythrin); assay: blocking assay, flow cytometry: phycoerythrin-coupled human LAG-3 pre-incubated with Fab, then binding to MHC class II on Daudi cells
T2 construct: also called Labelled LAG-3
T2 sequence (looked up): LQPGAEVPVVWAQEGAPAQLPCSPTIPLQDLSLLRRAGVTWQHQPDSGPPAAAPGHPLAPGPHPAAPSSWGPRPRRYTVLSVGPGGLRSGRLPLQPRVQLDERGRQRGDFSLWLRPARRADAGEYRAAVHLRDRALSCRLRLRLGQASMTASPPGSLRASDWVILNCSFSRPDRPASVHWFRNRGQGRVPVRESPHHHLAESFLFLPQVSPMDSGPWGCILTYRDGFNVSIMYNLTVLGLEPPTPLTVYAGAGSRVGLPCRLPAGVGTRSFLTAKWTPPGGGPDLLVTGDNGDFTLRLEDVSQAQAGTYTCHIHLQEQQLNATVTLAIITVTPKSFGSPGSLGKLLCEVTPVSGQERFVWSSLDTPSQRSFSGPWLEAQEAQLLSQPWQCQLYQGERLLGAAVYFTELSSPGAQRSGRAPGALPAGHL

[3] = target: T3, biotinylated recombinant human LAG-3 (human, UniProt P18627 23-450, limits assumed, biotinylated); assay: ELISA, antibody coated on the plate, biotinylated recombinant human LAG-3 titrated (x axis, nM), streptavidin detection, absorbance 450-570 nm
T3 construct: also called soluble recombinant human LAG-3 protein
T3 sequence (looked up): T2 sequence (looked up)

[4] = target: T4, human LAG-3 (Bio-Layer Interferometry; construct not stated) (human, UniProt P18627 23-450, limits assumed); assay: Bio-Layer Interferometry
T4 sequence (looked up): T2 sequence (looked up)

[5] = target: T5, Human LAG-3 coupled to human Fc (human, UniProt P18627 23-450, limits assumed); assay: SPR (ProteOn XPR 36), human LAG-3-Fc immobilised, A6 Fab as analyte at five concentrations (L1A1-L1A5)
T5 construct: also called LAG-3-Fc; human LAG-3-Fc; not shown: human Fc
T5 sequence (looked up): T2 sequence (looked up)
Procedure: (§1) Association and dissociation rates were measured with a ProteOn XPR 36 analyser (Biorad) and the affinity (KD) was calculated.

[6] = target: T5, Human LAG-3 coupled to human Fc; assay: SPR (ProteOn XPR 36), human LAG-3-Fc immobilised, A6 Fab as analyte
Procedure: as §1

[7] = target: T2, human LAG-3 coupled to phycoerythrin; assay: blocking assay, flow cytometry: labelled LAG-3 pre-incubated with Fab, then binding to MHC class II on Daudi cells, mean fluorescence intensity
[8] = target: T2, human LAG-3 coupled to phycoerythrin; assay: flow cytometry; inhibition of binding of PE-coupled human LAG-3 to MHC class II on Daudi cells
Procedure: Daudi cells were plated in 96-well plates and fixed/permeabilised in Fix/Perm buffer in the presence of anti-CD16/CD32 antibody. Premixes were added onto the Daudi cells and incubated for 30 minutes at 4° C. The cells were then washed three times in Perm/Wash buffer, resuspended in PBS and analysed by flow cytometry.

[9] = target: T1, mouse LAG-3 coupled to human Fc; assay: ELISA, plate coated with mouse LAG-3 coupled to human Fc, Fab, absorbance 450-670 nm

B1: anti-LAG-3 antibody clone C12 Fab (Fab, V domains shown)
VH: QVQLVQSGAEVKKPGSSVKVSCKASGGTFSSYAISWVRQAPGQGLEWMGGIIPIFGTANYAQKFQGRVTITADESTSTAYMELSSLRSEDTAVYYCARALADFWSGYYYYYYMDVWGKGTTVTVSS
VL: DVVMTQSPLSLPVTPGEPASISCRSSQSLLHSDGYNYFDWYLQKPGQSPQLLIYLGSNRAAGVPDRFSGSGSGTDFTLKISRVEAEDVGVYYCMQGTHWPPTFGQGTKLEIK
binding result [1]: binds | IC50 [2]: 18 nM

B2: anti-LAG-3 antibody clone A6 in IgG1 format (antibody, V domains shown)
VH: EVQLVQSGAEVKKPGSSVKVSCKASGYTFTSYYMHWVRQAPGQGLEWMGIINPSGGSTSYAQKFQGRVTMTRDTSTSTVYMELSSLRSEDTAVYYCAMPFGDFDYWGQGTLVTVSS
VL: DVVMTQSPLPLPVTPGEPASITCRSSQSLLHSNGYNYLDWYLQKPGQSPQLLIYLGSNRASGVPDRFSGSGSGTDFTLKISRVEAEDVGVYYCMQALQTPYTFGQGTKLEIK
notes: also called A6 IgG1
EC50 (read off the curve) [3]: ~0.7 nM

B3: anti-LAG-3 antibody clone A6 (format not stated) (antibody, V domains shown)
VH: B2 VH
VL: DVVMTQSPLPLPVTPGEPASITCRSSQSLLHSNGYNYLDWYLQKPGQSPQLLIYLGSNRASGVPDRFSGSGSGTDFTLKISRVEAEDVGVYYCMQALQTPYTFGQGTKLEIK
notes: also called antibody A6
Kd [4]: 1.25 nM

B4: anti-LAG-3 antibody clone A6 in IgG4 format (antibody, V domains shown)
VH: B2 VH
VL: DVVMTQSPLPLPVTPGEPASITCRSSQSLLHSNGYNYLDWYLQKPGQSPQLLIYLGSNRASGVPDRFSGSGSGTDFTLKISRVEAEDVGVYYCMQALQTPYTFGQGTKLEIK
notes: also called A6 IgG4
EC50 (read off the curve) [3]: ~0.6 nM

B5: anti-LAG-3 antibody clone A6 Fab (Fab, V domains shown)
VH: B2 VH
VL: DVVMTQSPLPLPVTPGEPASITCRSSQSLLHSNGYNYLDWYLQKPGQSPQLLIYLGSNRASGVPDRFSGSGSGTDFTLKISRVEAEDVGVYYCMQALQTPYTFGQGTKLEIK
notes: Fab format, from a human phage display library; the constant domains of the Fab are not
Kd [5]: 2.18 nM | koff [5]: 0.000456 s⁻¹ | kon [5]: 209000 M⁻¹ s⁻¹ | Kd [6]: 2.2 nM | IC50 [2]: 111 nM | IC50 (read off the curve) [7]: ~60 nM | IC50 [8]: 62.2 nM

B6: anti-LAG-3 antibody clone 1G11 Fab (Fab, V domains shown)
VH: QLQLQESGGDVVQPGRSLRLSCAASGFTFSSYGMHWVRQAPGKGLEWVAVISYDGSNKYYADSVKGRFTISRDNSKNTLYLQMNSLRAEDTAVYYCARLPGWGAYAFDIWGQGTMVTVSS
VL: EIVLTQSPGTLSLSPGERATLSCRASQSVSSSFLAWYQQKPGQAPRLLIYGASSRATGIPDRFSGSGSGTDFTLTISRLEPEDFAVYYCQQYGPSITFGGGTKVEIK
binding result [9]: binds | IC50 [8]: 378 nM

B7: anti-LAG-3 antibody clone G8 in IgG1 format (antibody, V domains shown)
VH: QVQLVQSGGGVVQPGRSLRLSCAASGFTFSSYAMHWVRQAPGKGLEWVAVISYDGSNKYYADSVKGRFTISRDNSKNTLYLQMNSLRAEDTAVYYCARDPDAANWGFLLYYGMDVWGQGTTVTVSS
VL: EIVLTQSPGTLSLSPGERATLSCTTSQSVSSTSLDWYQQKPGQAPRLLIYGASSRATGIPDRFSGSGSGTDFTLTISRLEPEDFAVYYCQQYGSSLLTFGGGTKVEIK
notes: IgG1 format; also called G8 IgG1
EC50 (read off the curve) [3]: ~0.8 nM

B8: anti-LAG-3 antibody clone G8 in IgG4 format (antibody, V domains shown)
VH: B7 VH
VL: B7 VL
notes: also called G8 IgG4
EC50 (read off the curve) [3]: ~0.4 nM

B9: anti-LAG-3 antibody clone C2 Fab (Fab, V domains shown)
VH: B7 VH
VL: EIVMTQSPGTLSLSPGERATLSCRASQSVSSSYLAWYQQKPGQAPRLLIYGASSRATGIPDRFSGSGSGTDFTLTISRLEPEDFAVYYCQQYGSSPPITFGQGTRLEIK
binding result [1]: no binding | IC50 [2]: 33 nM

B10: anti-LAG-3 antibody clone G8 (format not stated) (antibody, V domains shown)
VH: B7 VH
VL: B7 VL
notes: also called antibody G8
Kd [4]: 0.7 nM

B11: anti-LAG-3 antibody clone G8 Fab (Fab, V domains shown)
VH: B7 VH
VL: B7 VL
binding result [1]: no binding | IC50 [2]: 12 nM

B12: anti-LAG-3 antibody clone F5 in IgG1 format (antibody, V domains shown)
VH: EVQLVQSGAEVKKPGASVKVSCKVSGYTLTELSMHWVRQTPGKGLEWMGGFDPEDGETIYAQKFQGRVTMTEDTSTDTAYMELSSLRSEDTAVYYCATTWFGELYYWGQGTLVTVSS
VL: ETTLTQSPGTLSLSPGERATLSCRASQSVSSGYLAWYQQKPGQAPRLLIYDASSRATGIPDRFSGSGSGADFTLTISRLQPEDFAVYYCQQYGSSRPGLTFGGGTRVEIK
notes: IgG1 format; also called F5-IgG1
EC50 (read off the curve) [3]: ~5 nM

B13: anti-LAG-3 antibody clone F5 (format not stated) (antibody, V domains shown)
VH: B12 VH
VL: B12 VL
notes: also called antibody F5
Kd [4]: 1.21 nM

B14: anti-LAG-3 antibody clone F5 in IgG4 format (antibody, V domains shown)
VH: B12 VH
VL: B12 VL
notes: also called F5 IgG4
EC50 (read off the curve) [3]: ~3 nM

B15: anti-LAG-3 antibody clone F5 Fab (Fab, V domains shown)
VH: B12 VH
VL: B12 VL
binding result [1]: no binding | IC50 [2]: 3 nM

Reference: patent publication US20190040136A1 (AGENCY FOR SCIENCE TECHNOLOGY AND RESEARCH, published 2019)
